The data set can be described thus: label from the status in PepcDB records.
For the sequence “MTGLSQSQASPMQIQPGNAAFNPWTDAALDTIRDVNQALTLYAEMRVVPAHHDAFLAAIDTVSAKLRVLPGFLSLALKQMSGDSTMVKNYPETYKGVLATAYLDGVAAGTQPYFYNLFVRFADGRAARAAGFEALFETHIHPLLHAMAPRGGDGPELLAYRAVLQSVVAGDRHAIYRGAEEIRSFLRRPVELPERETVTVENHVMVPEDKHAAWEPQVAILLQVAQDTFEPQDEPSGVGLPGARDNRYYRKALSTEILRNAHADGGLRAYIMHGVWESVWDHENSHLDPRFLAAAGPVGAAAVVGPVEPFYLTRRLVVAD”, the protein production result is listed as “not failed”.

“MTGQELRQLLLDKWGYSYDVQFRRTQGKIFLQVMWKYLEQASFPMNETEYQEHLDSVANYLHALGGAVQVKTFITQTKERPRLGKAVSIPLDLGERASEWIILEHHHHHH”: the protein production entry is given as “not failed”. As for “MTGSQETRITILDAMTANQIAAGEVVERPASVVKELVENSLDAAARHITVEIEGGGLQLIRVRDDGRGIEPEDAPLAFARHATSKIRRAADLARITTLGFRGEALASIAAVARVEMATRPPGRPGGTLVRVAGGKPPEVTETGCPPGTSVTVKDLFYNTPARRQYLKKPSTEARAIVATVERLALGHPGVAFSLSLDGRRSLATPGNGDLQAVLAALYGLEIGRELLPFNGSGAGWSLHGFTSPPWLHRSNRDQQVLLINGRYITNRLLTWAIESCYRNVIPAGRHPLFVLHLAVDPGEVDVNVHPAKLEVRLQREQDLARQVTNLVKGALFTPRAVAPATISRSGDRKGAGSAPPVQQGFTFREPDKQARYWGEYVLRERARENREPEWPEKTGENTGAIKTREVPEGNGPVERDKPDPIGPETPAEETGKQVLPPLRALGQVFNTYILAGGEDGLYIIDQHAAHERCRYEALVKEGTPGSHPAQMLEPPLPLHLAPDMQVKLIDQIITLRELGFIIEEFGTGVFLLRSVPLGIPPGKEREVLEDFLAESTLPAPERLLKLIACHGAIKAGQSLAGAEMQKLLDDLRGVDHPYTCPHGRPAVVRLDEAQLARYFHRHLK”, the protein production entry is reported as “failed”. Take “MTGTPQRSHPQPERTFVTIDFAALPDDFLWGTATSAYQIEGAVAEDGRSPSIWDTFSHTPGKIDNGDHGDVACDHYHRTHEDIELMRRLGTNAYRLSVAWPRVVPGGDGPVNAKGLAFYDRLVDDLLAAGITPSVTLYHWDLPQVLQDRGGWPERDTAEHFAAYAAVVAERLGDRVAHWATLNEPLCSAWIGHLEGKMAPGQTDLTAAVRASYHLLLGHGLAMQAIRAAAPDAQVGIVNNLSTIHAATDREEDLAAARRMDGHTNRWWLDPVHGRGFPQDMREVYGVELPERPGDMRLIGAELDWLGLNYYFPQTVAADPTGPAPQVRTVRRAGVPRTGMDWEIDAGGIEELLLRLTEEYGPRKLYVTENGSSFPDLVRPDGSVDDPERQEYLTAHLAACASAARKGAPLAGYFAWSLLDNFEWAYGYDKRFGLVHVDYATQVRTIKGSGHHYADIIGRARGRERKAA”: the protein production result is reported as “failed”. The value for “MTGTRIAIGICTFRRPGIAATLASLGALRWPEGMSGLVIVADNDETPSARETVHAAAKGLPLPVCYLHAPARNISVARNAILEAAGARGLERLAFLDDDEMVEPGWIEALTEALARTGAEAVLGPVRAEHGAEAPAWMRESAIHDTRPTFLPDGSIKSGYSCNVLMDLTAPALEGLRFDPERGRSGGEDTAFFEAMLRRGGRLGFAPDALVRETVPADRARLGWLLRRRFRMGQTHASLIAGPGRAQRAKQALVALSKVAACSGMALAAVHDPLRRNNALLRGALHVGTLSALFGARPITIYGGTGPAPSTFDSKTDSYLVSRSRT” was “failed”; that for “MTGVFLPPLPPSLRLQIKTMAESILPNAIRSQSQPQAFVQVEVWIRRLVWKIVIATVLLMAVGSATRVMNAGLACPDWPLCYGQWVPSQQMNLQVFLEWFHRLDAALIGFSTLILVGLSWWFRRVLPKWLPWATLGSLALILVQGLLGGLTVIELLRFDIVTAHLGTAMAFLGSLVIIGLCLMPYQSNQTAGKLRPVALASTTIIYLQCLLGGLVGSQWAAHQCLAIAGTQFCQVLHSHLLGVLPTVLGVGLTFWCTRRTPALNPFLRQLGNGALALLGGQILLGVATLKLHLQIEPLTVAHHTVGICLWATLLAIAVLAVRDHRPTAPITS” was “failed”. “MTHLKIFLLLIVCALSVLDGKAQTGIALTDELNGKRIGVIGDSYVRNHKEPFENTWHYKFAKKHGMEYFNYGKNGNSIAYSSPRWGKAMYLRYAEMADSLDYVIVIGGHNDAFKLDSIGGIDNFKDKMEILCKGLVEKYPTAKIFFFTRWNCKNFKGSDSEKVVDAMIEVCGNYSIPIFDCARKGSIYADNDTFRRIYFQKSKNNTDTAHLNSKGHDRFLKVAESFLLQYLEHHHHHH”: the protein production entry is “failed”. To “MTHVTLRSEFETLIDPYAPVAQVGTGFDFTEGPIWHPIDHYLLFSDMPGDVRRRWDARRGMAEVKRPSNKCNGMTYDAELNLIVCEHATSSLIRERPDGRREVLASHFGGQELNSPNDVCVHSSGAIYFSDPWYGRMPVYGVERPRQLGFQGVYRVMPGGEPKLVVDRNLFDQPNGLCFSPDERLLYVNDTVQALIRVFDVNADGTLSNARVFASSIKSELEPGLPDGMKCDQHGNVWVTAPGGVWVYSPRGELLGKVRVPELVANLAWGGPDFRTLYLTSTHSVYAIPTRVGPRHEPYMSGRRGGAGASAGPAAAAPILTDGEMRLDPQRCAMIIQDLQNDVIMDGGAFDGSGAPAHAKQQHVVENVRRLAEAARARGVAIIHVWFVVEPGAPGVTLNAPLFEGLVDSKAMVRGSWGAAPVSGLEPRPGDFVVEKMRMSAWEGTRLETILKATGRDMIINTGAWTNMSVEHTARTGADKGYFMIVPEDCCSTMNADWHSASINFAMQNVAIVTRADAVIRALG” belongs “failed”; to “MTHYHFVGIKGSGMSSLAQIMHDLGHEVQGSDIESYVFTEVALRNKGIKILPFDANNITKEMVVIQGNAFPDNHEEIVRAHELKLDIIKYHDFLGHVINQYTSVAVTGAHGKTSTTGLLSHVMNGDKKTSFLIGDGTGMGLPGSDYFAFEACEYRRHFLSYHPDYAIMTNIDFDHPDYFKNIDDVYDAFQHMALNVKKGIIAWGDDEYLRKLDVDIPVYYYGFKETDDIYAKNIQITEKGTQFDVYIKGEFYDQFLSPQYGNHNILNALAVIAISYLEDMNVENIKEALITFGGVKRRFNETKVSNQVIVDDYAHHPREISATIETARKKYPQKDVVAVFQPHTFSRTQAFLNEFAESLSKADQVFLCEIFGSIRENTGDLTIEDLINRIDGSTLIDENSIDVLEKFDNAVILFMGAGDIQKLLKAYFEKLGVKNDF”, “failed”. With “MTIADIVMLTATIIIWSLLIVNILLVIFGYVYYLKTDPVAPPPVEDEDAPFVSIMVPAHNEGIVIVRTVEALLNFNYPQDRYEIIVINDNSSDNSAELLANVQKKAVNRNLQIINTDNITGGKGKSNALNIGFKQAKGDVIAIYDADNTPEPNALRYLVGELIASEEYGAVIGKFRTRNRNASLLTRFINIETLAFQWMAQAGRFQLFKLCTIPGTNFIVRRSIIEAIGGWDDKALAEDTEISFRIYMMGYKIKFQPKAVTWEQEPQTLSVWFRQRTRWVKGNIYVIVKNAKLLFNPKASRIRFDILYFLSIYFLLMTSLVLSDIMLVLSMSGYLTTTLQGFSNSLWLLAILLFIFSTFVSITTEKGEMTLENILIIALMYITYSQMWLVVAAYGMVMYIKENVFHKQTQTKWYKTERFK”, the protein production entry is recorded as “failed”. For the sequence “MTIFRFADGNSMTTKTNLLPHIPSSDAIISRWRWLAIIVSLVMALLASAFILLLSNAVDREVAQLNTSSELREQADLVLISLIDMAVADRSYAKNHKAEDKARFEHAARNLDDILEYIELIVYAHPQWYEWFTSFKKEVEARKAFMNDHMRALDALPDQSSQPSSSSEIPKIQVARLAQLMTSFINGDDVVRQKQREGIALMRAALTLAAIVSVVSTFMSAYFVINRFHRDVRSLKMYQLLLHSENIALEARVKERTQELERARNHAEKERQRVEMLLQDVSHRIGNSLGTVSSLLGLQLNRSDNEEVRSVLGAARDRIQTISTAHRRLRLSDDMETTLLAEFLSSVVHDVELAMPLELRENITIHTNFKECRLSSRDATTLGIILGELLTNSLKHAFPDKRSGDIYISFGPQKNGQLMLIVEDNGVGMKNQTQEKKTGLGRVVVEQLCMQFGEKPLFETSALGGTKIVIPLPKLTPNASKEAYA”, the protein production result was “failed”. For “MTIKTLDISPVGRVEGDLDVRVEIEDGQVVNAWTHAELFRGFEIILRGKDPQAGLIVTPRICGICGASHLTSASWALDTAWNTTVPRNAILARNLGQIVETIQSIPRYFYGLFAIDLTNKKYRSSRFYDEAVRRFAAFTGKSYELGVTISSKPVEIYALFGGQWPHSSYMVPGGVMCAPTLTDITRAWAILEYFRTNWLEPVWLGCSLERYEEIQTYDDFMDWLEADIKHRESDLGFYWRMGLDIGLDRYGAGVGKYVSWGYLPHEDKYQKPTIEGRNAAMIMKSGVYDSFSDTHTLMDHTFARENTTHSWYDEGNADVHPFDRTTKPTQKNTKDFKNAYSWSTAVLHQDFGRLEVGPLARQLVAGGQHGESWQHYDGFILDAFQKMGGASIHLRQLARVHEIVKLYRQAERCLREFVLNDPWYIKPKEKDGRGWGATEASRGSLCHWIDIEGGKIKNYQVIAATTWNVGPRDSEGVRGPIEEALIGTPIEDSRDPVEVGHVARSFDSCLVCTVHAHDAKTGEELARFRTA”, the protein production result is given as “failed”. On to “MTILSAALLLFLILDPLGNIPVFLSVLKPLPPKRQRFVLARELLIALCVLMAFLWGGKYALELMHLRQESVAIAGGIVLFVIGIRMIFPRPEGLMGEIPDGEPFIVPLAIPLVAGPSGMAAVMLMGSNEPTRLWDWSLALMIAWIGASSILAAAPLLYKLLGHRALTAIERLMGMLLVAISVQMFLDGLGTYFKLPVSI”, for which the protein production entry was “failed”. Turning to “MTILVEHFVPDSRVDEKKVIEERDNELVLDGGFVVPKSKETDAFDAPDMNFLGHSFRDYENGESERQQGVEEFYRMQHIHQTYDFVKKMRKEYGKLNKMEMSIWECCELLNNVVDESDPDLDEPQIQHLLQTAEAIRRDYPDEDWLHLTALIHDLGKVLLLPEFGGLPQWAVVGDTFPVGCTFDSANIHHKYFKGNHDINNPKYNTKNGVYTEGCGLDNVLMSWGHDDYMYLVAKKNGTTLPHAGLFIIRYHSFYPLHKAGAYTHLMNDEDRDDLKWLHVFNKYDLYSKSKVLVDVEQVKPYYISLINKYFPAKLKW”, the protein production result is “failed”. To “MTIMTARFASILLGGCLAASLFSGPVFAVGNDNSTMPTCKKGEIYDQKTKKCVKQQSANVSDENRTDYAYSLAKAGRYEEALAMLDTVKDQNSAEVLNYRGYATRKLGRTDEGISYYLQSVKMDPQYAKVREYLGEAYVIKGRLDLAKEQLTTIKAICGTACEEYQDLNAAILNPSKI” belongs “failed”; to “MTIPELPKDLIEEILCYVPATYLKRLRSTCKGWNRLFKDDRRFAKKHYDKAAKQFLPLMSTNEELCAMSVNLHGTIPSLEVKDKPWLFVSDSKHCDIEISRIFHSGGLLLCFSRDGEISIIVWNPLTSETRLIRTRNRRDKGRNFVLGYYQEDKKTYYKILSFYLDSKDFEIFEFNSDSWRFIDDICPGLSLLYSDQCVSLKGNTYMFAIDDLSVSLLKYDFSTETSVPVPLPYKSRSFEAISLSVVREEKLSVLLQRDKSSKTEIWVTNVIDETTTKVMVVSWSKVLSLDLSPDLKIRYGESFLLDEEKKVIMIFNNRMEEENKSEDKLYIIGDDDNKATQVYTIHGYGPAVFNYFPSLVQIEQSSRQEEKS”, “failed”.

Source of the values: a protein production outcome set (Wang et al. 2014).
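Also: failed if final PepcDB status was selected cloned or expressed and not failed if soluble or beyond.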
